Results from paper PMC3901155.

Substrate: Nc1ncnc2c1ncn2[C@@H]1O[C@H](COP(=O)(O)O)[C@@H](OP(=O)(O)O)[C@H]1O
Experiment: purified protein
Type: biochemical, Rattus norvegicus
Conditions: 5 mM p-nitrophenyl sulfate, pH 7.0, 37 °C

B1: AST-IV (Rattus norvegicus) (protein)
chain: MEFSRPPLVHVKGIPLIKYFAETIGPLQNFTAWPDDLLISTYPKSGTTWMSEILDMIYQGGKLEKCGRAPIYARVPFLEFKCPGVPSGLETLEETPAPRLLKTHLPLSLLPQSLLDQKVKVIYIARNAKDVVVSYYNFYNMAKLHPDPGTWDSFLENFMDGEVSYGSWYQHVKEWWELRHTHPVLYLFYEDIKENPKREIKKILEFLGRSLPEETVDSIVHHTSFKKMKENCMTNYTTIPTEIMDHNVSPFMRKGTTGDWKNTFTVAQNERFDAHYAKTMTDCDFKFRCEL
Question: With B1 as the protein, how does the Km read?
Answer: Its Km is 25.3 µM.
